Patent US20150368338A1 (Janssen / Centocor, published 2015)
Numbering of substitutions follows the chain as printed. Values belong to the binder of their own block, whether it stands above or below them.

Columns and labels:
Experiment in all cases: ProteOn SPR, cell supernatant;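 further: each binding measurement used just a single antigen concentration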
IFN-αG = target: T1, IFN-αG (human, UniProt P01569 24-189)
T1 construct: Recombinant, HEK293; also called IFN-α5

IFN-αF = target: T2, IFN-αF (human, UniProt P01568 24-189)
T2 construct: Recombinant, HEK293; also called IFN-α21
T2 chain: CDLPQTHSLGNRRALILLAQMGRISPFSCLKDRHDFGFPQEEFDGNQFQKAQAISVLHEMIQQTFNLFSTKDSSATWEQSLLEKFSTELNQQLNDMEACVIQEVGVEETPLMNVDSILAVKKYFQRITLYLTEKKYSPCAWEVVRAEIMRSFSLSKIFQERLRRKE

IFN-αC = target: T3, IFN-αC (human, UniProt P01566 24-189)
T3 construct: Recombinant, HEK293; also called IFN-α10

human IFN-ω = target: T4, human IFN-ω (human, UniProt P05000 24-195)
T4 construct: Recombinant, HEK293; also called interferon omega

IFN-αJ1 = target: T5, IFN-αJ1 (human, UniProt P01567 24-189)
T5 construct: Recombinant, HEK293; also called IFN-α7

IFN-α4a = target: T6, IFN-α4a (human, UniProt P05014 24-189)
T6 construct: Recombinant, HEK293; also called IFN-αM1

IFN-αWA = target: T7, IFN-αWA (human, UniProt P05015 24-189)
T7 construct: Recombinant, HEK293; also called IFN-α16

B1: IFWM3382 (antibody, IgG1, V domains shown)
VH: EVQLVQSGAEVKKPGESLKISCKGSGYSFTSYWIGWVRQMPGKGLEWMGIIDPSDSDTRYSPSFQGQVTISADKSISTAYLQWSSLKASDTAMYYCARHPGLAWAPDFDYWGQGTLVTVSS
VL: DIQMTQSPSSLSASVGDRVTITCRASQSIGSALNWYQQKPGKAPKLLIYFASSLQSGVPSRFSGSGSGTDFTLTISSLQPEDFATYYCQQSYDFPLTFGQGTKVEIK
notes: mAb; IgG1/kappa said of the parent and of selected mAbs; also called IFWB3117
Kd (IFN-αG): 0.03 nM | Kd (IFN-αF): 0.02 nM | Kd (IFN-αC): 0.024 nM | Kd (human IFN-ω): 0.03 nM | Kd (IFN-αJ1): 0.037 nM | Kd (IFN-α4a): 0.075 nM | Kd (IFN-αWA): 0.032 nM

B2: IFWM3387 (antibody, IgG1, V domains shown)
VH: B1 VH
VL: B1 VL with S31G, A32F, D93S, F94L, L96I
notes: mAb; IgG1/kappa said of the parent and of selected mAbs; also called IFWB3122
Kd (IFN-αG): 0.034 nM | Kd (IFN-αF): 0.058 nM | Kd (IFN-αC): 0.09 nM | Kd (human IFN-ω): 0.039 nM | Kd (IFN-αJ1): 0.161 nM | Kd (IFN-α4a): 0.169 nM | Kd (IFN-αWA): 0.069 nM

B6: IFWM3372 (antibody, IgG1, V domains shown)
VH: B1 VH with R59A, A103N
VL: DIQMTQSPSSLSASVGDRVTITCRASQSIDNNNLNWYQQKPGKAPKLLIYAASSLQSGVPSRFSGSGSGTDFTLTISSLQPEDFATYYCQQGYDWPLTFGQGTKVEIK
notes: mAb; IgG1/kappa said of the parent and of selected mAbs; also called IFWB3107
Kd (IFN-αG): 0.103 nM | Kd (IFN-αF): 0.116 nM | Kd (IFN-αC): 0.094 nM | Kd (human IFN-ω): 0.049 nM | Kd (IFN-αJ1): 0.69 nM | Kd (IFN-α4a): 0.432 nM | Kd (IFN-αWA): 0.272 nM

B7: IFWM3393 (antibody, IgG1, V domains shown)
VH: B1 VH
VL: B1 VL with G30T, A32S, Y92F, F94L
notes: mAb; IgG1/kappa said of the parent and of selected mAbs; also called IFWB3128
Kd (IFN-αG): 0.064 nM | Kd (IFN-αF): 0.041 nM | Kd (IFN-αC): 0.049 nM | Kd (human IFN-ω): 0.057 nM | Kd (IFN-αJ1): 0.096 nM | Kd (IFN-α4a): 0.166 nM | Kd (IFN-αWA): 0.078 nM

B8: IFWM3403 (antibody, IgG1, V domains shown)
VH: B1 VH
VL: B1 VL with G30R, S31N, A32S, Y49K, F50W, S91L, F94W
notes: mAb; IgG1/kappa said of the parent and of selected mAbs; also called IFWB3138
Kd (IFN-αG): 0.027 nM | Kd (IFN-αF): 0.027 nM | Kd (IFN-αC): 0.025 nM | Kd (human IFN-ω): 0.007 nM | Kd (IFN-αJ1): 0.059 nM | Kd (IFN-α4a): 0.062 nM | Kd (IFN-αWA): 0.023 nM

B10: IFWM3392 (antibody, IgG1, V domains shown)
VH: B1 VH
VL: B1 VL with G30D, S31R, Y92F
notes: mAb; IgG1/kappa said of the parent and of selected mAbs; also called IFWB3127
Kd (IFN-αG): 0.019 nM | Kd (IFN-αF): 0.014 nM | Kd (IFN-αC): 0.016 nM | Kd (human IFN-ω): 0.023 nM | Kd (IFN-αJ1): 0.021 nM | Kd (IFN-α4a): 0.058 nM | Kd (IFN-αWA): 0.025 nM

Further binders by falling Kd (IFN-αG), results first:

Kd (IFN-αG): 0.178 nM | Kd (IFN-αF): 0.229 nM | Kd (IFN-αC): 0.191 nM | Kd (human IFN-ω): 0.089 nM | Kd (IFN-αJ1): 0.656 nM | Kd (IFN-α4a): 1.16 nM | Kd (IFN-αWA): 0.493 nM
B5: IFWM3418 (antibody, IgG1, V domains shown)
VH: B1 VH with A103N
VL: B1 VL with G30A, S31G, A32F, F50Y, D93S, F94I, L96I
notes: mAb; IgG1/kappa said of the parent and of selected mAbs; also called IFWB3153

Kd (IFN-αG): 0.084 nM | Kd (IFN-αF): 0.06 nM | Kd (IFN-αC): 0.069 nM | Kd (human IFN-ω): 0.028 nM | Kd (IFN-αJ1): 0.086 nM | Kd (IFN-α4a): 0.143 nM | Kd (IFN-αWA): 0.064 nM
B9: IFWM3383 (antibody, IgG1, V domains shown)
VH: B1 VH
VL: B1 VL with G30S, S31K, A32F, Y92N, D93T, F94L, L96F
notes: mAb; IgG1/kappa said of the parent and of selected mAbs; also called IFWB3118

Kd (IFN-αG): 0.081 nM | Kd (IFN-αF): 0.158 nM | Kd (IFN-αC): 0.126 nM | Kd (human IFN-ω): 0.086 nM | Kd (IFN-αJ1): 0.399 nM | Kd (IFN-α4a): 0.582 nM | Kd (IFN-αWA): 0.193 nM
B4: IFWM3419 (antibody, IgG1, V domains shown)
VH: B1 VH
VL: B1 VL with G30A, S31G, A32F, F50Y, D93S, F94I, L96I
notes: mAb; IgG1/kappa said of the parent and of selected mAbs; also called IFWB3154

Kd (IFN-αG): 0.061 nM | Kd (IFN-αF): 0.007 nM | Kd (IFN-αC): 0.005 nM | Kd (human IFN-ω): 0.011 nM | Kd (IFN-αJ1): 0.037 nM | Kd (IFN-α4a): 0.079 nM | Kd (IFN-αWA): 0.068 nM
B12: IFWM3396 (antibody, IgG1, V domains shown)
VH: B1 VH
VL: B1 VL with G30S, S31E, A32Y, Y92H, D93S, F94L, L96I
notes: mAb; IgG1/kappa said of the parent and of selected mAbs; also called IFWB3131

Kd (IFN-αG): 0.033 nM | Kd (IFN-αF): 0.009 nM | Kd (IFN-αC): 0.024 nM | Kd (human IFN-ω): 0.017 nM | Kd (IFN-αJ1): 0.032 nM | Kd (IFN-α4a): 0.098 nM | Kd (IFN-αWA): 0.03 nM
B3: IFWM3389 (antibody, IgG1, V domains shown)
VH: B1 VH
VL: B1 VL with G30D, S31D, A32F, Y92H, D93T, F94L
notes: mAb; IgG1/kappa said of the parent and of selected mAbs; also called IFWB3124

Kd (IFN-αG): 0.026 nM | Kd (IFN-αF): 0.029 nM | Kd (IFN-αC): 0.031 nM | Kd (human IFN-ω): 0.026 nM | Kd (IFN-αJ1): 0.087 nM | Kd (IFN-α4a): 0.103 nM | Kd (IFN-αWA): 0.035 nM
B11: IFWM3386 (antibody, IgG1, V domains shown)
VH: B1 VH
VL: B1 VL with G30A, S31E, A32F, Y92I
notes: mAb; IgG1/kappa said of the parent and of selected mAbs; also called IFWB3121
